From patent EP4772193A1
Substitutions are numbered along the chain they refer to. In names and notes the source's numbering stands.

Columns and labels:
[1] = target: recombinant human soluble gpNMB (recombinant human gpNMB-FLAG-His) (human) (UniProt Q14956); assay: antigen ELISA, vs hGPN06-1_H1L1
[2] = target: recombinant human soluble gpNMB (recombinant human gpNMB-FLAG-His) (human) (UniProt Q14956); assay: antigen ELISA

B1: hGPN06-1_H1L1 VL Y93A (antibody, V domains shown)
VH: QVQLVQSGAEVKKPGASVKVSCKASGYTFTDNWMGWVKQRPGQGLEWIGAIDPSDSFTNYNQNFKGRVTMTVDTSISTAYMELSRLRSDDSAVYFCTRSGYYGSPKLGGDYWGQGTLVTVSS
VL: EIVLTQSPSSLSASVGDRVTITCSASSSISYMHWYQQKSGTAPKLLIYSTSNLASGVPSRFSGSGSGTDFTFTISSLQPEDAATYYCHQWNSAPCTFGGGTKLEIK
B1 was tested. Which Relative binding activity [1] did it give?
The Relative binding activity was 0.

What about the EC50 [2] of the same binder?
The EC50 was 25.3 nM.

B2: hGPN06-1_H1L1 VH D55A (antibody, V domains shown)
VH: B1 VH with D55A
VL: B1 VL with A93Y
For B2, which Relative binding activity [1] is on record?
Its Relative binding activity is 0.

What about the EC50 [2] of the same binder?
Its EC50 is 31.5 nM.
